Source: publication PMC2441792

What was measured:
[1] = target: protein δ (ParA-Ib type Walker-box ATPase) of plasmid pSM19035, wild type (Streptococcus pyogenes (plasmid pSM19035)); assay: SEC + cross-linking
[2] = target: δ2K36A (Walker A mutant of protein δ) (Streptococcus pyogenes (plasmid pSM19035)); assay: SEC + cross-linking

Substance | stoichiometry N [1] | stoichiometry N [2]
protein δ (ParA-Ib type Walker-box ATPase) of plasmid pSM19035, wild type (enzyme) | 2 | 
δ2K36A (Walker A mutant of protein δ) (enzyme) |  | 2
